Data reported in the RNAGym collection of RNA variant scans (doi:10.7554/elife.80360).

B1: HDV Ribozyme (parent)
chain: GGCCGGCAUGGUCCCAGCCUCCUCGCUGGCGCCGGCUGGGCAACAUUCCGAGGGGACCGUCCCCUCGGUAAUGGCGAAUGGGACCCA

Variants of: B1
Test: self-cleavage, relative activity (ratio to wild type); higher = more cleavage; co-transcriptional

**Q.** Which self-cleavage does the source give for GGCCGGCAUGGUCCCAGCCUCCUCGCUGGCGCCGCCUGGGCAACAUUCCGAGCGGACCGUCCCCUCGGUAAUGGCGAAUGGGACCCA here?
**A.** 0.208

**Q.** With GGCCGGCAUGGUCCCAGCCUCCUCGCUGGCGCCGCCUGGGCAACAUUCCGAGGGGACCGUCCCCUCGAUAAUGGCGAAUGGGACCCA as the variant, how does the self-cleavage read?
**A.** 0.17

**Q.** Which self-cleavage does the source give for GGCCGGCAUGGUCCCAGCCUCCUCGCUGGCGCCGCCUGGGCAACAUUCCGAGGGGACCGUCCCCUCGGUAAUGCCGAAUGGGACCCA here?
**A.** 0.17

**Q.** For GGCCGGCAUGGUCCCAGCCUCCUCGCUGGCGCCGCCUGGGCAACAUUCCGAGGGGACCGUCCCCUCGGUAAUGGCGAAUAGGACCCA, which self-cleavage is on record?
**A.** 0.212

**Q.** For GGCCGGCAUGGUCCCAGCCUCCUCGCUGGCGCCGCCUGGGCAACAUUCCGAGGGGACCGUCCCCUCGGUAAUGGCGAAUCGGACCCA, which self-cleavage is on record?
**A.** 0.0992

**Q.** For GGCCGGCAUGGUCCCAGCCUCCUCGCUGGCGCCGCCUGGGCAACAUUCCGAGGGGACCGUCCCCUCGGUAAUGGCGAAUUGGACCCA, which self-cleavage is on record?
**A.** 0.043

**Q.** Which self-cleavage does the source give for GGCCGGCAUGGUCCCAGCCUCCUCGCUGGCGCCGCCUGGGCAACAUUCCGAGGGGACCGUCCCCUCGGUAAUGGCGAAUGUGACCCA here?
**A.** 0.0739

**Q.** Which self-cleavage does the source give for GGCCGGCAUGGUCCCAGCCUCCUCGCUGGCGCCGCCUGGGCAACAUUCCGAGGGGACCGUCCCCUCGGUAAUGGCGAAUGGAACCCA here?
**A.** 0.147

**Q.** With GGCCGGCAUGGUCCCAGCCUCCUCGCUGGCGCCGCCCGGGCAACAUUCCGAGGGGACCGUCCCCUCGGUAAUGGCGAAUGGGACCCA as the variant, how does the self-cleavage read?
**A.** 0.18

**Q.** With GGCCGGCAUGGUCCCAGCCUCCUCGCUGGCGCCGCCUGGGCAACAGUCCGAGGGGACCGUCCCCUCGGUAAUGGCGAAUGGGACCCA as the variant, how does the self-cleavage read?
**A.** 0.0831

**Q.** Which self-cleavage does the source give for GGCCGGCAUGGUCCCAGCCUCCUCGCUGGCGCCGCCUGGGCAACAUCCCGAGGGGACCGUCCCCUCGGUAAUGGCGAAUGGGACCCA here?
**A.** 0.237

**Q.** For GGCCGGCAUGGUCCCAGCCUCCUCGCUGGCGCCGCCUGGGCAACAUGCCGAGGGGACCGUCCCCUCGGUAAUGGCGAAUGGGACCCA, which self-cleavage is on record?
**A.** 0.0923

**Q.** Which self-cleavage does the source give for GGCCGGCAUGGUCCCAGCCUCCUCGCUGGCGCCGCCUGGGCAACAUUCCGAGGGGACCGACCCCUCGGUAAUGGCGAAUGGGACCCA here?
**A.** 0.192

**Q.** For GGCCGGCAUGGUCCCAGCCUCCUCGCUGGCGCCGUCUGGGCGACAUUCCGAGGGGACCGUCCCCUCGGUAAUGGCGAAUGGGACCCA, which self-cleavage is on record?
**A.** 0.17

**Q.** For GGCCGGCAUGGUCCCAGCCUCCUCGCUGGCGCCGUCUGGGCUACAUUCCGAGGGGACCGUCCCCUCGGUAAUGGCGAAUGGGACCCA, which self-cleavage is on record?
**A.** 0.246

**Q.** Which self-cleavage does the source give for GGCCGGCAUGGUCCCAGCCUCCUCGCUGGCGCCGUCUGGGCACCAUUCCGAGGGGACCGUCCCCUCGGUAAUGGCGAAUGGGACCCA here?
**A.** 0.208

**Q.** Which self-cleavage does the source give for GGCCGGCAUGGUCCCAGCCUCCUCGCUGGCGCCGUCUGGGCAACAUUCCGGGGGGACCGUCCCCUCGGUAAUGGCGAAUGGGACCCA here?
**A.** 0.356

**Q.** For GGCCGGCAUGGUCCCAGCCUCCUCGCUGGCGCCGUCUGGGCAACAUUCCGAGGGGACCGUCCCCUCGGUAAUGGCGCAUGGGACCCA, which self-cleavage is on record?
**A.** 0.0875

**Q.** Which self-cleavage does the source give for GGCCGGCAUGGUCCCAGCCUCCUCGCUGGCGCCGUCUGGGCAACAUUCCGAGGGGACCGUCCCCUCGGUAAUGGCGACUGGGACCCA here?
**A.** 0.133

**Q.** With GGCCGGCAUGGUCCCAGCCUCCUCGCUGGCGCCGUCUGGGCAACAUUCCGAGGGGACCGUCCCCUCGGUAAUGGCGAUUGGGACCCA as the variant, how does the self-cleavage read?
**A.** 0.0545

**Q.** Which self-cleavage does the source give for GGCCGGCAUGGUCCCAGCCUCCUCGCUGGCGCCGUCUGGGCAACAUUCCGAGGGGACCGUCCCCUCGGUAAUGGCGAAUGGGUCCCA here?
**A.** 0.145

**Q.** Which self-cleavage does the source give for GGCCGGCAUGGUCCCAGCCUCCUCGCUGGCGCCGUCUGGGCAACAUUCCGAGGGGACCGUCCCCUCGGUAAUGGCGAAUGGGACCCC here?
**A.** 0.432

**Q.** Which self-cleavage does the source give for GGCCGGCAUGGUCCCAGCCUCCUCGCUGGCGCCGUGUGGGCAACAUUCCGAGGGGACCGUCCCCUCGGUAAUGGCGAAUGGGACCCA here?
**A.** 0.104

**Q.** For GGCCGGCAUGGUCCCAGCCUCCUCGCUGGCGCCGUCUGGGAAACAUUCCGAGGGGACCGUCCCCUCGGUAAUGGCGAAUGGGACCCA, which self-cleavage is on record?
**A.** 0.3

**Q.** Which self-cleavage does the source give for GGCCGGCAUGGUCCCAGCCUCCUCGCUGGCGCCGUCUGGGGAACAUUCCGAGGGGACCGUCCCCUCGGUAAUGGCGAAUGGGACCCA here?
**A.** 0.188

**Q.** With GGCCGGCAUGGUCCCAGCCUCCUCGCUGGCGCCGUCUGGGCAACAUUUCGAGGGGACCGUCCCCUCGGUAAUGGCGAAUGGGACCCA as the variant, how does the self-cleavage read?
**A.** 0.554

**Q.** With GGCCGGCAUGGUCCCAGCCUCCUCGCUGGCGCCGUCUGGGCAACAUUCGGAGGGGACCGUCCCCUCGGUAAUGGCGAAUGGGACCCA as the variant, how does the self-cleavage read?
**A.** 0.325

**Q.** For GGCCGGCAUGGUCCCAGCCUCCUCGCUGGCGCCGUCUGGGCAACAUUCCGAGGGGACGGUCCCCUCGGUAAUGGCGAAUGGGACCCA, which self-cleavage is on record?
**A.** 0.323

**Q.** With GGCCGGCAUGGUCCCAGCCUCCUCGCUGGCGCCGUCUGGGCAACAUUCCGAGGGGACCGUACCCUCGGUAAUGGCGAAUGGGACCCA as the variant, how does the self-cleavage read?
**A.** 0.428

**Q.** With GGCCGGCAUGGUCCCAGCCUCCUCGCUGGCGCCGUCUGGGCAACAUUCCGAGGGGACCGUCGCCUCGGUAAUGGCGAAUGGGACCCA as the variant, how does the self-cleavage read?
**A.** 0.259

**Q.** For GGCCGGCAUGGUCCCAGCCUCCUCGCUGGCGCCGUCUGGGCAACAUUCCGAGGGGACCGUCCCCUCGGUAAUGGCGAAUGGGACCAA, which self-cleavage is on record?
**A.** 0.35

**Q.** With GGCCGGCAUGGUCCCAGCCUCCUCGCUGGCGCCGUCUGGGCAACAUUCCGAGGGGACCGUCCCCUCGGUAAUGGCGAAUGGGACCGA as the variant, how does the self-cleavage read?
**A.** 0.397
